From IntAct's records for PubMed 20385816

Biological target: slac1_arath SLAC1 (UniProt Q9LD83)
Sequence (Q9LD83 whole entry): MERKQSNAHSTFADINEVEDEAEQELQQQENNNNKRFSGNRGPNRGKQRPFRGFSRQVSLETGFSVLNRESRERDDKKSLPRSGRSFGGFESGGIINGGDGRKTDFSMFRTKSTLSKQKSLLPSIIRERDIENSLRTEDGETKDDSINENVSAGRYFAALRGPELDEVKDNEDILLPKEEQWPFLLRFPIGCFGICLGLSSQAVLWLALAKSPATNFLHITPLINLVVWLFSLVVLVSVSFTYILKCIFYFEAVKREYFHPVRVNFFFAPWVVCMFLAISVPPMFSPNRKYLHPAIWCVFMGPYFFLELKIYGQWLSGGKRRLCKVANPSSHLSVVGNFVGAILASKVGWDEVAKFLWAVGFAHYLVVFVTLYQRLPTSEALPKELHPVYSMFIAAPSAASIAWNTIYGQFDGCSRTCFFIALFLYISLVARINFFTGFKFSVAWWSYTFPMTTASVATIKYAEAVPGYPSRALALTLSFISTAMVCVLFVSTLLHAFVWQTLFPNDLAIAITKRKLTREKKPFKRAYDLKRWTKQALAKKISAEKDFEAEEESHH

Calcium-dependent protein kinase 23 (Arabidopsis thaliana (Mouse-ear cress)), Q9M101 D193A, sequence (Q9M101 whole entry D193A): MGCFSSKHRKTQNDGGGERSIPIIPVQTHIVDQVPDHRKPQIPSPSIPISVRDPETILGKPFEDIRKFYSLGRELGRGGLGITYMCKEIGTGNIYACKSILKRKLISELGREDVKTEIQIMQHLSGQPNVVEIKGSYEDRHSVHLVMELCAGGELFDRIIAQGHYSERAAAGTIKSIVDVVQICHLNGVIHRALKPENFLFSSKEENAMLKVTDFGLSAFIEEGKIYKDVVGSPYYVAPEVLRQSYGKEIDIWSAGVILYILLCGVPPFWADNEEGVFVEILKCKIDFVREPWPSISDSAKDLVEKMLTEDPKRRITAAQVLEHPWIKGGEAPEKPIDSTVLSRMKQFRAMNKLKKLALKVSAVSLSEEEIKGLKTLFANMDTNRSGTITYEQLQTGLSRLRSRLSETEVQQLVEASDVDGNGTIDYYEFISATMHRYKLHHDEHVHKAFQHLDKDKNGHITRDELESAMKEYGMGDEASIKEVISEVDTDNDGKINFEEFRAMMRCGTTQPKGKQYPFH

“Calcium-dependent protein kinase 23 (Arabidopsis thaliana (Mouse-ear cress)), Q9M101 D193A” was tested, and the “effect of a mutation on the interaction” value was “disrupting interaction”.
